Results on two substances are retold here after article PMC3711130.

Like-named read-outs stand apart in the source and are kept apart here.

Assay [1] has as its target pyr-actin·WT-Tm·hcTn thin filament (rabbit | rat | human) (UniProt P68135). In words: stopped-flow fluorescence.
The target is the same in assay [2]. In words: stopped-flow fluorescence. The source holds these as a separate data set.
The target of assay [3] is pyr-actin·WT-E180G-Tm·hcTn thin filament (rabbit | rat | human) (UniProt P68135). The assay is described as follows: stopped-flow fluorescence.
Assay [4] deals with pyr-actin·WT-D175N-Tm·hcTn thin filament (rabbit | rat | human) (UniProt P68135). The assay is described as follows: stopped-flow fluorescence.
Assay [5] deals with pyr-actin·D175N-Tm·hcTn thin filament (rabbit | rat | human) (UniProt P68135). The assay is described as follows: stopped-flow fluorescence.
Assay [6] has as its target pyr-actin·E180G-Tm·hcTn thin filament (rabbit | rat | human) (UniProt P68135). The assay is described as follows: stopped-flow fluorescence.
The target of assay [7] is His-Tm (wild-type α-tropomyosin homodimer with a histidine tag) (rat). In words: cross-linking.

Sequence of myosin subfragment 1 (native rabbit skeletal) (domain or fragment) (Q28641 whole entry, the tested form may be a part): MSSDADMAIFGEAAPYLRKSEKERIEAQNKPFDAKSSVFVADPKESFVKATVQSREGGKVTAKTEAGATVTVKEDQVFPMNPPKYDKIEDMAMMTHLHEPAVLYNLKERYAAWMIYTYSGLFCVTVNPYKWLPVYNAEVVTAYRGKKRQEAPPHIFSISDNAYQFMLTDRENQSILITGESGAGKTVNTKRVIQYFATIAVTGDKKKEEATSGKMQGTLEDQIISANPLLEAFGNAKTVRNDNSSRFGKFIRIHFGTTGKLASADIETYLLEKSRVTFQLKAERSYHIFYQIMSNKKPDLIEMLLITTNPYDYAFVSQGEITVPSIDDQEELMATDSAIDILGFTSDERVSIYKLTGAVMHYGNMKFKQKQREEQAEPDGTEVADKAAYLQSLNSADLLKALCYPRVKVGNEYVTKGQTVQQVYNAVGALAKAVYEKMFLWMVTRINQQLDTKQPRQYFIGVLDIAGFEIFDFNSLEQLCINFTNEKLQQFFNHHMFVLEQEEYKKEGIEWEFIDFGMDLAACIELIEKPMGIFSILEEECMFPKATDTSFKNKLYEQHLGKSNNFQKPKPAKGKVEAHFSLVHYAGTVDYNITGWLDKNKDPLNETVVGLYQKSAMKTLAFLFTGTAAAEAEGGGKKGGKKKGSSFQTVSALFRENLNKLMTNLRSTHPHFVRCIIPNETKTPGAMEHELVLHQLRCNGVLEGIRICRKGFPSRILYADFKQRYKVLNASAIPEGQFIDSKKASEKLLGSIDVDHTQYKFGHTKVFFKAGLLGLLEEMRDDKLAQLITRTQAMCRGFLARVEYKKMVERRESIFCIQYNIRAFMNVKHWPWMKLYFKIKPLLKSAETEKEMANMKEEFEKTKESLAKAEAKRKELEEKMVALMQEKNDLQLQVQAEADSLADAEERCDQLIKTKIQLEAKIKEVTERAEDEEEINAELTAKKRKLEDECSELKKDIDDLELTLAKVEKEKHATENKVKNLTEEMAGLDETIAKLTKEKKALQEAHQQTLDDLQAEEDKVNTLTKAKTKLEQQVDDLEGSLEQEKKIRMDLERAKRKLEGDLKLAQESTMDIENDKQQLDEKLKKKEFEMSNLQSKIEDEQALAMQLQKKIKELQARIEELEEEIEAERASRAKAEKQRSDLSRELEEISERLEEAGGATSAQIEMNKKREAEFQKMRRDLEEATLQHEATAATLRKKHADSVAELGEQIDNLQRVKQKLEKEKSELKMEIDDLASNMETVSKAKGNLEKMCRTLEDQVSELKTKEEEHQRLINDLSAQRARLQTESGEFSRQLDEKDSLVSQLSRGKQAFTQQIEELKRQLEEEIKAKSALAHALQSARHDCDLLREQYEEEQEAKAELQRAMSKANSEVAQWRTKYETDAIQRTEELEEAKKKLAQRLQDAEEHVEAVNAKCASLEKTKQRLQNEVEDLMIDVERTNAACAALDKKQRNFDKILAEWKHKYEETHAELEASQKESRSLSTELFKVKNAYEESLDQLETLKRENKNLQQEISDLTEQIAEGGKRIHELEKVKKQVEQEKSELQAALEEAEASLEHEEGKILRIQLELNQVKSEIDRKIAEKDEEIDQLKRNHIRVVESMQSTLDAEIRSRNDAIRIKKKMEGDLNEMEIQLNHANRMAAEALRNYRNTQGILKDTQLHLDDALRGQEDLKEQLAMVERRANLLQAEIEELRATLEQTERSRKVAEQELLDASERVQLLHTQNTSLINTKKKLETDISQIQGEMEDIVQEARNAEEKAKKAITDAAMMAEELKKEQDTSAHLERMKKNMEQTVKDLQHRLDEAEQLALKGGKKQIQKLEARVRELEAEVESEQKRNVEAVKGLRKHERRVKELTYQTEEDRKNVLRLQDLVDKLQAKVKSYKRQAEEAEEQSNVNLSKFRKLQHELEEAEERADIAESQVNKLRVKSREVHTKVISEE

On to “myosin subfragment 1 (native rabbit skeletal) (domain or fragment)”, for which the kobs with Ca2+ in assay [1] was 7 s^–1; in assay [2] it was 7.68 s^–1; in assay [3], 7.58 s^–1; in assay [4], 8 s^–1; in assay [5] it was 8.48 s^–1; in assay [6], 8.46 s^–1. Moreover, the kobs without Ca2+ in assay [1] was 2 s^–1; in assay [2], 2.21 s^–1; in assay [3], 2.31 s^–1; in assay [4] it was 2.31 s^–1; in assay [5], 2.41 s^–1; in assay [6] it was 2.71 s^–1.

For “D175N-Tm (α-tropomyosin homodimer with the D175N mutation in both chains) (natural protein)”, the stoichiometry N (usually a count of units in the complex or per binding partner) in assay [7] is 1.
